Assay results: patent US20240083986A1 (published 2024)
Blank lines part the entries; values can stand above or below the binder they belong to.

Assays:
natural Bet v 1 [1] = target: T1, natural Bet v 1 (Betula verrucosa (Betula pendula), UniProt P15494 2-160); assay: blocking ELISA, biotin nBet v 1 to captured IgE, donor 22627-MN
T1 construct: bought natural protein (Indoor Biotechnologies #NA-BV1-1); also called nBet v 1; Biotinylated Bet v 1
T1 chain: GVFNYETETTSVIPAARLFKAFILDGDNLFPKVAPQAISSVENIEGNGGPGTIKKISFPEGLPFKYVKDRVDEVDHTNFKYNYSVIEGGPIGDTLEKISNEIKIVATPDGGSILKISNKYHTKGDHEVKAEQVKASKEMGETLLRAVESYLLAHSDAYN

natural Bet v 1 [2] = target: T1, natural Bet v 1; assay: blocking ELISA, biotin nBet v 1 to captured IgE, donor 23035-BL
natural Bet v 1 [3] = target: T1, natural Bet v 1; assay: blocking ELISA, biotin nBet v 1 to captured IgE, donor 23658-MD
natural Bet v 1 [4] = target: T1, natural Bet v 1; assay: blocking ELISA, biotin nBet v 1 to captured IgE, donor 23939-MH
natural Bet v 1 [5] = target: T1, natural Bet v 1; assay: blocking ELISA, biotin nBet v 1 to captured IgE, donor 25299-RJ
natural Bet v 1 [6] = target: T1, natural Bet v 1; assay: blocking ELISA, biotin nBet v 1 to captured IgE, donor 25340-RR
natural Bet v 1 [7] = target: T1, natural Bet v 1; assay: blocking ELISA, biotin nBet v 1 to captured IgE, donor 25414-CW
natural Bet v 1 [8] = target: T1, natural Bet v 1; assay: blocking ELISA, biotin nBet v 1 to captured IgE, donor 25609-MS
natural Bet v 1 [9] = target: T1, natural Bet v 1; assay: blocking ELISA, biotin nBet v 1 to captured IgE, donor 26532-CC
natural Bet v 1 [10] = target: T1, natural Bet v 1; assay: blocking ELISA, biotin nBet v 1 to captured IgE, donor 29718-MW
natural Bet v 1 [11] = target: T1, natural Bet v 1; assay: dose-response blocking ELISA, biotin nBet v 1 to captured IgE, donor 23939-MH
natural Bet v 1 [12] = target: T1, natural Bet v 1; assay: dose-response blocking ELISA, biotin nBet v 1 to captured IgE, donor 25340-RR
natural Bet v 1 [13] = target: T1, natural Bet v 1; assay: dose-response blocking ELISA, biotin nBet v 1 to captured IgE, donor 25609-MS
[14] = target: T2, Alder (Aln g 1, MyBiosource, Cat #MBS1041484) (Alder, UniProt P38948 2-160, limits assumed); assay: SPR Biacore, 25C;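 also: binding of related allergens to purified monoclonal anti-Bet v 1 antibodies by surface plasmon resonance in HEPES-buffered saline pH 7.4, kinetics fitted to a 1:1 model with mass transport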
T2 construct: Bought reagent
T2 sequence (looked up): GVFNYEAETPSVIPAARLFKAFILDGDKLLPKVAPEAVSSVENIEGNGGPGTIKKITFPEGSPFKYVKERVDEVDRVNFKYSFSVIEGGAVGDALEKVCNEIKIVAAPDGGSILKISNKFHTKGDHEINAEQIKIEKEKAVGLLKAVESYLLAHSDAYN

[15] = target: T3, Apple (Mal d 1, MyBiosource, Cat #MBS1224919) (Apple, UniProt P43211 2-159, limits assumed); assay: SPR Biacore, 25C;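 also: binding of related allergens to purified monoclonal anti-Bet v 1 antibodies by surface plasmon resonance in HEPES-buffered saline pH 7.4, kinetics fitted to a 1:1 model with mass transport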
T3 construct: Bought reagent
T3 sequence (looked up): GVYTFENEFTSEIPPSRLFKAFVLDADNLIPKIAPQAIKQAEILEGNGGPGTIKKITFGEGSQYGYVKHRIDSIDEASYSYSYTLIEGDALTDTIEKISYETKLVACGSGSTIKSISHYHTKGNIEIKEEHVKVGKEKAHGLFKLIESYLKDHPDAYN

[16] = target: T4, Celery (Api g 1, MyBiosource, Cat #MBS1171376) (Celery, UniProt P49372 1-154, limits assumed); assay: SPR Biacore, 25C;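 also: binding of related allergens to purified monoclonal anti-Bet v 1 antibodies by surface plasmon resonance in HEPES-buffered saline pH 7.4, kinetics fitted to a 1:1 model with mass transport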
T4 construct: Bought reagent
T4 sequence (looked up): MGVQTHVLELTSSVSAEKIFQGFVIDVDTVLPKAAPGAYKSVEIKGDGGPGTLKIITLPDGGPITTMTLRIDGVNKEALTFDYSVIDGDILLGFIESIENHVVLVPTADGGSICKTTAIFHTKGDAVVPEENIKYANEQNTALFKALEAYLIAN

[17] = target: T5, European Hornbeam (Car b 1 isoform 1A & 1B, MyBiosource, Cat #MBS1200018) (European Hornbeam, UniProt P38949 2-160); assay: SPR Biacore, 25C;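 also: binding of related allergens to purified monoclonal anti-Bet v 1 antibodies by surface plasmon resonance in HEPES-buffered saline pH 7.4, kinetics fitted to a 1:1 model with mass transport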
T5 construct: Bought reagent
T5 sequence (looked up): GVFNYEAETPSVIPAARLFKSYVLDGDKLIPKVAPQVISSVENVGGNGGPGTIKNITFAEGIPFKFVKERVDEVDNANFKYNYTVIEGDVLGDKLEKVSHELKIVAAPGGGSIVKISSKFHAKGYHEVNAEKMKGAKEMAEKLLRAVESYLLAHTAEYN

[18] = target: T6, European Hornbeam (Car b 1 isoform 2, MyBiosource, Cat #MBS1043940) (European Hornbeam, UniProt P38950 2-160, limits assumed); assay: SPR Biacore, 25C
T6 construct: Bought reagent
T6 sequence (looked up): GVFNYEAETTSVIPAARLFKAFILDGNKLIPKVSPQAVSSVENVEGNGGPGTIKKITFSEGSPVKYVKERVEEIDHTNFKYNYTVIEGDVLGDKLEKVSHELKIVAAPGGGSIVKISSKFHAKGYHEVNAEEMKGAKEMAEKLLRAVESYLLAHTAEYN

mutant Bet v 1-MMH = target: T7, mutant Bet v 1-MMH (Betula verrucosa (European white birch, …)); assay: SPR Biacore, 25C and 37C
T7 construct: also called CHO produced recombinant Bet v 1 containing a S85A mutation with a C-terminal myc-myc hexahistidine tag
T7 chain: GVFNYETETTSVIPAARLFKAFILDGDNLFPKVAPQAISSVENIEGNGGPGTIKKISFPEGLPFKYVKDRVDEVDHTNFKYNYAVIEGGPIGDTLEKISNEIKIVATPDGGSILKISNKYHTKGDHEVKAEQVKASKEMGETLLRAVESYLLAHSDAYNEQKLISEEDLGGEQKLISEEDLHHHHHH

[19] = target: T8, natural Bet v 1 (Indoor, Cat #NA-BV1-1) (Betula verrucosa (European white birch, …, UniProt P15494 2-160)); assay: SPR Biacore, mAb captured on anti-hFc, 25C;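 also: rate constants from sensorgrams fitted to a 1:1 model with mass transport limitation, KD and t½ derived from kinetic constants, run in HBS-ET buffer at pH 7.4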
T8 construct: Bought natural protein purified from birch pollen; also called nBet v 1
T8 sequence: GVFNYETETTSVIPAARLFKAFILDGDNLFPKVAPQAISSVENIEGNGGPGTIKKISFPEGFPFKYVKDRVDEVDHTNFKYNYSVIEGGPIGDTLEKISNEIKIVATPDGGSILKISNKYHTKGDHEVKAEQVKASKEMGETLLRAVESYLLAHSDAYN

[20] = target: T8, natural Bet v 1 (Indoor, Cat #NA-BV1-1); assay: SPR Biacore, mAb captured on anti-hFc, 37C;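 also: purified anti-Bet v 1 monoclonal antibodies, HBS-ET running buffer pH 7.4, rate constants from 1:1 model fit with mass transport limitation, KD and t½ calculated from kinetic constants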

Percent Blocking (at 1 µg/mL each antibody) (natural Bet v 1 [1]): 12%
Percent Blocking (at 1 µg/mL each antibody) (natural Bet v 1 [2]): -46%
Percent Blocking (at 1 µg/mL each antibody) (natural Bet v 1 [3]): 27%
Percent Blocking (at 1 µg/mL each antibody) (natural Bet v 1 [4]): 16%
Percent Blocking (at 1 µg/mL each antibody) (natural Bet v 1 [5]): 9%
Percent Blocking (at 1 µg/mL each antibody) (natural Bet v 1 [6]): 15%
Percent Blocking (at 1 µg/mL each antibody) (natural Bet v 1 [7]): -4%
Percent Blocking (at 1 µg/mL each antibody) (natural Bet v 1 [8]): 16%
Percent Blocking (at 1 µg/mL each antibody) (natural Bet v 1 [9]): 4%
Percent Blocking (at 1 µg/mL each antibody) (natural Bet v 1 [10]): 13%
Percent Blocking (at 1 µg/mL each antibody) (natural Bet v 1 [11]): 19.6%
Percent Blocking (at 1 µg/mL each antibody) (natural Bet v 1 [12]): 11.1%
Percent Blocking (at 1 µg/mL each antibody) (natural Bet v 1 [13]): 21.6%
B1: H4H16987P (antibody, human IgG4 S228P, kappa, V domains shown)
VH: EVQLVESGGGLVQPGGSLRLSCAASGFTVSSNSMSWVRQAPGEGLEWVSVIFSGGITYYSDSVKGRFTISRHNSKNTLYLQMNSLRTEDTAVYYCARHSNWNFDAFDIWGQGTMVTVSS
VL: DIQMTQSPSSLSASVGDRVTITCRASQSFDTYLNWYQQKPGKAPNLLIYATSSLQSGVPSRFSGSGSGTDFTLTISSLQPEDFGTYYCQQSYSIPYTFGQGTKLEIKR
notes: fully human, human IgG4 Fc (H4H prefix); also called MAB4

binding result [14]: no binding (tested: 100 nM)
binding result [15]: no binding (tested: 100 nM)
binding result [16]: no binding (tested: 100 nM)
binding result [17]: no binding (tested: 100 nM)
binding result [18]: no binding (tested: 100 nM)
binding result (mutant Bet v 1-MMH): no binding (tested: 100 nM)
100 nM natural Bet v 1 Bound (RU) [19]: 27 RU
Kd [19]: 3.98 nM
koff [19]: 0.000149 s⁻¹
kon [19]: 37600 M⁻¹ s⁻¹
t½ [19]: 77 min
100 nM natural Bet v 1 Bound (RU) [20]: 45 RU
Kd [20]: 14.3 nM
koff [20]: 0.000719 s⁻¹
kon [20]: 50400 M⁻¹ s⁻¹
t½ [20]: 16 min
B2: H4H16967P (antibody, human IgG4, V domains shown)
VH: QVQLVESGGGVVQPGRSLRLSCAASGFTFSSYGMHWFRQAPGKGLEWVGVIWSDGSDKKYADSVKGRFTISRDNSKNTLYLLMNSLRDDDTAVYHCAREGGFLYSSSSHFDYWGQGTLVTVSS
VL: AIQMTQSPSSLSASVGDRVTITCRTSQGIRNDLGWYQQKPGKAPKLLIFAASSLQSGVPSRFSGSGSGTDFTLTISSLQPEDFAIYYCLQDYKYPFTFGGGTKVEIK
